These results are taken from paper PMC8236860, “Regulation of Dual Activity of Ascorbate Peroxidase 1 From Arabidopsis thaliana by Conformational Changes and Posttranslational Modifications” (Frontiers in Plant Science, 2021).

This data set concerns the molecule itself. In words: native gel or EMSA; 10% native-PAGE of purified recombinant AtAPX1 (total protein, SEC fractions F1-F3, and protein treated with GSNO, NaHS or SIN-1). On the technique in general: Mobility shift assays separate free from complexed probe on a gel.

B1: Cytosol type APX1 from Arabidopsis thaliana (AtAPX1), recombinant (enzyme, UniProt Q05431 1-250, looked up)
chain: MTKNYPTVSEDYKKAVEKCRRKLRGLIAEKNCAPIMVRLAWHSAGTFDCQSRTGGPFGTMRFDAEQAHGANSGIHIALRLLDPIREQFPTISFADFHQLAGVVAVEVTGGPDIPFHPGREDKPQPPPEGRLPDATKGCDHLRDVFAKQMGLSDKDIVALSGAHTLGRCHKDRSGFEGAWTSNPLIFDNSYFKELLSGEKEGLLQLVSDKALLDDPVFRPLVEKYAADEDAFFADYAEAHMKLSELGFADA
notes: Ascorbate peroxidase 1, cytosolic (AtAPX1), Arabidopsis thaliana; 27 kDa on SDS-PAGE; Heme enzyme; also called ascorbate peroxidase 1; recombinant AtAPX1 protein; source: E. coli BL21 (DE3), pET28a, purified (Ni-NTA, thrombin cleavage of the His-tag, SEC)
As for B1, the stoichiometry N (commonly the number of molecules, sites or subunits per partner or assembly) turned out to be 2.

B2: S-sulfhydrated recombinant AtAPX1 (NaHS-treated) (enzyme, Arabidopsis thaliana, UniProt Q05431 1-250, looked up)
chain: MTKNYPTVSEDYKKAVEKCRRKLRGLIAEKNCAPIMVRLAWHSAGTFDCQSRTGGPFGTMRFDAEQAHGANSGIHIALRLLDPIREQFPTISFADFHQLAGVVAVEVTGGPDIPFHPGREDKPQPPPEGRLPDATKGCDHLRDVFAKQMGLSDKDIVALSGAHTLGRCHKDRSGFEGAWTSNPLIFDNSYFKELLSGEKEGLLQLVSDKALLDDPVFRPLVEKYAADEDAFFADYAEAHMKLSELGFADA
modifications: S-sulfhydration of cysteine (NaHS treatment); positions not determined in this paper
notes: Ascorbate peroxidase 1, cytosolic (AtAPX1), Arabidopsis thaliana; same construct as m1; not mapped here; also called NaHS-treated AtAPX1; source: E. coli BL21 (DE3), purified, then incubated with NaHS (10 nM-100 μM) at 4°C for 30 min in the dark
With B2, the binding result is on record as “binds”.

B3: S-nitrosylated recombinant AtAPX1 (GSNO-treated) (enzyme, Arabidopsis thaliana, UniProt Q05431 1-250, looked up)
chain: MTKNYPTVSEDYKKAVEKCRRKLRGLIAEKNCAPIMVRLAWHSAGTFDCQSRTGGPFGTMRFDAEQAHGANSGIHIALRLLDPIREQFPTISFADFHQLAGVVAVEVTGGPDIPFHPGREDKPQPPPEGRLPDATKGCDHLRDVFAKQMGLSDKDIVALSGAHTLGRCHKDRSGFEGAWTSNPLIFDNSYFKELLSGEKEGLLQLVSDKALLDDPVFRPLVEKYAADEDAFFADYAEAHMKLSELGFADA
modifications: S-nitrosylation of cysteine (GSNO treatment); positions not determined in this paper
notes: Ascorbate peroxidase 1, cytosolic (AtAPX1), Arabidopsis thaliana; same construct as m1; not mapped here; also called S-nitrosylated APX1; GSNO-treated AtAPX1; source: E. coli BL21 (DE3), purified, then incubated with GSNO (0-1 mM) at 25°C for 30 min in the dark
In the case of B3, the binding result is on record as “binds”.

B4: Tyrosine-nitrated recombinant AtAPX1 (SIN-1-treated) (enzyme, Arabidopsis thaliana, UniProt Q05431 1-250, looked up)
chain: MTKNYPTVSEDYKKAVEKCRRKLRGLIAEKNCAPIMVRLAWHSAGTFDCQSRTGGPFGTMRFDAEQAHGANSGIHIALRLLDPIREQFPTISFADFHQLAGVVAVEVTGGPDIPFHPGREDKPQPPPEGRLPDATKGCDHLRDVFAKQMGLSDKDIVALSGAHTLGRCHKDRSGFEGAWTSNPLIFDNSYFKELLSGEKEGLLQLVSDKALLDDPVFRPLVEKYAADEDAFFADYAEAHMKLSELGFADA
modifications: tyrosine nitration (SIN-1 treatment); positions not determined in this paper
notes: Ascorbate peroxidase 1, cytosolic (AtAPX1), Arabidopsis thaliana; same construct as m1; also called SIN-1-treated protein; source: E. coli BL21 (DE3), purified, then incubated with SIN-1 (0-10 mM) at 37°C for 1 h in the dark
Regarding B4, the binding result is “binds”.
